The target in this test is IL13ra2-Fc. The experiment in a line: yeast display flow cytometry titration.

B1: RLK (ligand)
chain: GPVPPSTALRRLIEELVNITQNQKAPLCNGSMVWSINLTAGMYCAALESLINVSGCSAIEKTQRMLSGFCPHKVSAGQFSSLHVRDTKILVAQFVKDLLLHLKKLFKEGRFN
The term Kd denotes the equilibrium constant for the complex coming apart. High values mean a looser complex, low ones a tighter complex. B1 returned a Kd of 480 nM.

B2: YLK (ligand)
chain: GPVPPSTALRYLIEELVNITQNQKAPLCNGSMVWSINLTAGMYCAALESLINVSGCSAIEKTQRMLSGFCPHKVSAGQFSSLHVRDTKILVAQFVKDLLLHLKKLFKEGRFN
For the molecule B2, the equilibrium dissociation constant (Kd) stood at 200 nM.

Source of the values: patent US20230405119A1 (published 2023).
